The text below walks through data of patent US20240092867A1 (UNIVERSITY OF CHICAGO, published 2024).

The chains are these.
B1: vascular endothelial growth factor (VEGF)-A121 (ligand, human, UniProt P15692-9 27-147, looked up)
chain: APMAEGGGQNHHEVVKFMDVYQRSYCHPIETLVDIFQEYPDEIEYIFKPSCVPLMRCGGCCNDEGLECVPTEESNITMQIMRIKPHQGQHIGEMSFLQHNKCECRPKKDRARQEKCDKPRR
notes: mature; Purchased in mature form, not glycosylated
B2: Arg substituted HBD (peptide)
peptide: YIGLKDSKSPSELSSIASQVKYAC
notes: not in the list MOLECULES; also called vWF A1 HBD with Arg substituted by Ser; mutated HBD peptide
B3: placental growth factor (PlGF)-1 (ligand, human, UniProt P49763-2 19-149, looked up)
chain: LPAVPPQQWALSAGNGSSEVEVVPFQEVWGRSYCRALERLVDVVSEYPSEVEHMFSPSCVSLLRCTGCCGDENLHCVPVETANVTMQLLKIRSGDRPSYVELTFSQHVRCECRPLREKMKPERCGDAVPRR
notes: mature; Purchased in mature form

For one assay, the target named is T1, laminin-111 (human, UniProt P25391 18-3075; P07942 22-1786; P11047 34-1609).
T1 construct: Full-length recombinant human laminin isoform (BioLamina); Chain composition is read from the isoform name
Briefly: ELISA, GF coated, laminin 10 nM. A general note: An ELISA detects its analyte on a solid surface through an enzyme-linked reagent.

The next assay deals with T2, laminin-211 (human, UniProt P24043 23-3122; P07942 22-1786; P11047 34-1609).
T2 construct: Full-length recombinant human laminin isoform (BioLamina); chains read from the isoform name
Briefly: ELISA, GF coated, laminin 10 nM.

In a further assay the target is T3, laminin-332 (human, UniProt Q16787 28-1724; Q13751 18-1172; Q13753 22-1193, limits assumed).
T3 construct: Full-length recombinant human laminin isoform (BioLamina); chains read from the isoform name
Briefly: ELISA, GF coated, laminin 10 nM.

In another assay the target is T4, laminin-411 (human, UniProt Q16363 25-1823; P07942 22-1786; P11047 34-1609).
T4 construct: Full-length recombinant human laminin isoform (BioLamina); chains read from the isoform name
Briefly: ELISA, GF coated, laminin 10 nM.

The target in the next assay is T5, laminin-421 (human, UniProt Q16363 25-1823; P55268 33-1798; P11047 34-1609).
T5 construct: Full-length recombinant human laminin isoform (BioLamina); chains read from the isoform name
Briefly: ELISA, GF coated, laminin 10 nM.

The target of a further assay is T6, laminin-511 (human, UniProt O15230 36-3695; P07942 22-1786; P11047 34-1609).
T6 construct: Full-length recombinant human laminin isoform (BioLamina); chains read from the isoform name
Briefly: ELISA, GF coated, laminin 10 nM.

The next assay addresses T7, laminin-521 (human, UniProt O15230 36-3695; P55268 33-1798; P11047 34-1609).
T7 construct: Full-length recombinant human laminin isoform (BioLamina); chains read from the isoform name
Briefly: ELISA, GF coated, laminin 10 nM.

In assay [1] the target is T8, recombinant laminin α3 2928-3150 protein (linker domain and LG4 domain) (human, UniProt Q16787 2928-3150).
T8 construct: range 2928-3150; Made in HEK-293F cells; also called laminin alpha 3 LG domain recombinant protein
T8 sequence: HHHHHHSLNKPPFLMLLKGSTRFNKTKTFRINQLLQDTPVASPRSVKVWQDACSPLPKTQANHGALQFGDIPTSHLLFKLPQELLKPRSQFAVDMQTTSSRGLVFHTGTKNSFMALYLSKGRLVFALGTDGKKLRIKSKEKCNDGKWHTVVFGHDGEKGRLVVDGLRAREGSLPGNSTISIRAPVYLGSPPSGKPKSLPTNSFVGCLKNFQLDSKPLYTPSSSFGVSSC
Briefly: ELISA, LG domain protein coated. The procedure:
Affinity of GFs against recombinant laminin LG domains. ELISA plates were coated with 1 μg/mL (A) α3₂₉₂₈₋₃₁₅₀, (B) α4₈₂₆₋₁₈₁₆, or (C) α5₃₀₂₆₋₃₄₈₂ and further incubated with 1 μg/mL of VEGF-A165, VEGF-A121, PlGF-2, PlGF-1, PDGF-BB, or FGF-2 solution. Bound GFs were detected using a specific antibody for each GF (n=4, mean±SEM). Statistical analyses were done using the Mann-Whitney U test by comparing the signals obtained from the laminin domain- and the BSA-coated wells. *p<0.05, **p<0.01. […] A SPR chip was functionalized with the laminin α3₂₉₂₈₋₃₁₅₀ recombinant protein (˜1000 RU), and each GF was flowed over the chip at indicated concentrations. Curves represent the specific responses (in RU) to laminin. Experimental curves were fitted with Langmuir binding kinetics.
ELISA tests were performed as described above. […] 1 μg/mL of BSA served as non-binding protein control. After blocking with 2% BSA PBS-0.05% Tween 20 (PBS-T) solution, 1 μg/mL of the recombinant human proteins (VEGF-A121, VEGF-A165, PlGF-1, PlGF-2, PDGF-BB or FGF-2) or 10 μg/mL of biotinylated heparin (Sigma-Aldrich) were added. Bound GF was detected with biotinylated antibodies for human VEGF, PlGF, PDGF-BB, or FGF-2 (R&D Systems). The antibodies were detected by streptavidin-HRP (R&D Systems).

A further assay deals with T9, human plasma-derived vWF (human, UniProt P04275 764-2813).
T9 construct: mature; also called plasma-derived purified vWF; von Willebrand factor
Briefly: ELISA, GF coated 50 nM, vWF 1 µg/mL.

For assay [2], the target named is T10, pro-peptide containing recombinant vWF (UniProt P04275 23-2813).
T10 construct: also called immature, pro-peptide-containing recombinant vWF
Briefly: ELISA; peptides and vWF forms coated at 50 nM, VEGF-A in solution, detected with anti-VEGF-A antibody [panel D]. The procedure: (§1) (A) Diagram of exon sequence of VEGF-A showing inclusion (+) or exclusion (−) of heparin binding domain exons for the different VEGF-A isoforms. […] Bound VEGF-A was detected using a specific antibody for VEGF-A (n=4, mean±SD). Statistical comparisons were done using ANOVA with Tukey's test compared with BSA control. **p<0.01.
(§2) ELISA was performed as previously reported1. […] After blocking with 2% BSA solution containing PBS-T, 1 μg/mL of recombinant human VEGF-A121 (PeproTech), recombinant human VEGF-A145 (R & D Systems), or recombinant human VEGF-A165 (PeproTech) was added. Bound VEGF-A was detected with 1 μg/mL of mouse anti-human VEGF-A antibody (clone: 26503, R & D systems). After 60 min of incubation, horseradish peroxidase (HRP) conjugated goat anti-mouse antibody (1:2000 dilution, Dako) was added and incubated for another 60 min. Color development and the absorbance measurement were done as described above.

In assay [3] the target is T11, recombinant human vWF A2 domain (human, UniProt P04275 1498-1665).
T11 construct: domain: A2
Described as above. As to the method: as §1, §2

Assay [4] addresses T12, recombinant human vWF A3 domain (human, UniProt P04275 1683-1874).
T12 construct: domain: A3
The description is as above. As to the method: as §1, §2

In assay [5] the target is T13, recombinant human vWF A1 domain (human, UniProt P04275 1261-1468, limits assumed).
T13 construct: domain: A1; also called vWF A1 recombinant protein; recombinant A1 domain
Briefly: ELISA; recombinant vWF A1 domain coated (10 µg/mL, legend paragraph 67), GF in solution, detected with anti-VEGF-A antibody [panel B]. As to the method: (§3) FIGS. 18A-C. […] Bound GFs were detected using a specific antibody for each GF (n=4, mean±SD). Statistical analyses were done using ANOVA with Tukey's test or Student's t-test. *p<0.05, **p<0.01.
(§4) ELISA tests were performed as described above. […] After blocking with 2% BSA solution containing PBS-T, 1 μg/mL of the recombinant human proteins VEGF-A121, VEGF-A165, PlGF-1, PlGF-2, PDGF-BB, FGF-2, CXCL-12α and CXCL-12γ were added. 1 μg/mL of BSA served as non-binding protein control. Bound GF or chemokine was detected with biotinylated antibodies for human VEGF-A, PlGF, PDGF-BB, FGF-2, or CXCL-12 (R & D Systems). The antibodies were detected by streptavidin-HRP (R & D Systems). Color development and the absorbance measurement were done as described above.

The target of assay [6] is T14, vascular endothelial growth factor (VEGF)-A165 (human, UniProt P15692-4 27-191).
T14 construct: mature; Purchased in mature form, not glycosylated
Briefly: ELISA; peptides and vWF forms coated at 50 nM, VEGF-A in solution, detected with anti-VEGF-A antibody [panel B]. The procedure:
as §1, §2

For assay [7], the target named is T15, recombinant human VEGF-A145 (human, UniProt P15692-6 27-171).
T15 sequence (looked up): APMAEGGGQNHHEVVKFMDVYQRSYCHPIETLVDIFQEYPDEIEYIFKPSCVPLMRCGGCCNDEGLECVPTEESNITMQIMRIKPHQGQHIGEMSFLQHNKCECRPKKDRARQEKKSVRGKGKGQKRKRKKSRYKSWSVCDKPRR
Briefly: ELISA; peptides and vWF forms coated at 50 nM, VEGF-A in solution, detected with anti-VEGF-A antibody [panel C]. The procedure: as §1, §2

For assay [8], the target named is B1. Briefly: ELISA; peptides and vWF forms coated at 50 nM, VEGF-A in solution, detected with anti-VEGF-A antibody [panel D]. As to the method: as §1, §2
Assay [9] has as its target T13, recombinant human vWF A1 domain. Briefly: ELISA; recombinant vWF A1 domain coated (10 µg/mL, legend paragraph 67), GF in solution, detected with anti-PlGF antibody [panel B]. As to the method: as §3, §4

T4 sequence (Q16363 25-1823 limits assumed, chain 1 of 3): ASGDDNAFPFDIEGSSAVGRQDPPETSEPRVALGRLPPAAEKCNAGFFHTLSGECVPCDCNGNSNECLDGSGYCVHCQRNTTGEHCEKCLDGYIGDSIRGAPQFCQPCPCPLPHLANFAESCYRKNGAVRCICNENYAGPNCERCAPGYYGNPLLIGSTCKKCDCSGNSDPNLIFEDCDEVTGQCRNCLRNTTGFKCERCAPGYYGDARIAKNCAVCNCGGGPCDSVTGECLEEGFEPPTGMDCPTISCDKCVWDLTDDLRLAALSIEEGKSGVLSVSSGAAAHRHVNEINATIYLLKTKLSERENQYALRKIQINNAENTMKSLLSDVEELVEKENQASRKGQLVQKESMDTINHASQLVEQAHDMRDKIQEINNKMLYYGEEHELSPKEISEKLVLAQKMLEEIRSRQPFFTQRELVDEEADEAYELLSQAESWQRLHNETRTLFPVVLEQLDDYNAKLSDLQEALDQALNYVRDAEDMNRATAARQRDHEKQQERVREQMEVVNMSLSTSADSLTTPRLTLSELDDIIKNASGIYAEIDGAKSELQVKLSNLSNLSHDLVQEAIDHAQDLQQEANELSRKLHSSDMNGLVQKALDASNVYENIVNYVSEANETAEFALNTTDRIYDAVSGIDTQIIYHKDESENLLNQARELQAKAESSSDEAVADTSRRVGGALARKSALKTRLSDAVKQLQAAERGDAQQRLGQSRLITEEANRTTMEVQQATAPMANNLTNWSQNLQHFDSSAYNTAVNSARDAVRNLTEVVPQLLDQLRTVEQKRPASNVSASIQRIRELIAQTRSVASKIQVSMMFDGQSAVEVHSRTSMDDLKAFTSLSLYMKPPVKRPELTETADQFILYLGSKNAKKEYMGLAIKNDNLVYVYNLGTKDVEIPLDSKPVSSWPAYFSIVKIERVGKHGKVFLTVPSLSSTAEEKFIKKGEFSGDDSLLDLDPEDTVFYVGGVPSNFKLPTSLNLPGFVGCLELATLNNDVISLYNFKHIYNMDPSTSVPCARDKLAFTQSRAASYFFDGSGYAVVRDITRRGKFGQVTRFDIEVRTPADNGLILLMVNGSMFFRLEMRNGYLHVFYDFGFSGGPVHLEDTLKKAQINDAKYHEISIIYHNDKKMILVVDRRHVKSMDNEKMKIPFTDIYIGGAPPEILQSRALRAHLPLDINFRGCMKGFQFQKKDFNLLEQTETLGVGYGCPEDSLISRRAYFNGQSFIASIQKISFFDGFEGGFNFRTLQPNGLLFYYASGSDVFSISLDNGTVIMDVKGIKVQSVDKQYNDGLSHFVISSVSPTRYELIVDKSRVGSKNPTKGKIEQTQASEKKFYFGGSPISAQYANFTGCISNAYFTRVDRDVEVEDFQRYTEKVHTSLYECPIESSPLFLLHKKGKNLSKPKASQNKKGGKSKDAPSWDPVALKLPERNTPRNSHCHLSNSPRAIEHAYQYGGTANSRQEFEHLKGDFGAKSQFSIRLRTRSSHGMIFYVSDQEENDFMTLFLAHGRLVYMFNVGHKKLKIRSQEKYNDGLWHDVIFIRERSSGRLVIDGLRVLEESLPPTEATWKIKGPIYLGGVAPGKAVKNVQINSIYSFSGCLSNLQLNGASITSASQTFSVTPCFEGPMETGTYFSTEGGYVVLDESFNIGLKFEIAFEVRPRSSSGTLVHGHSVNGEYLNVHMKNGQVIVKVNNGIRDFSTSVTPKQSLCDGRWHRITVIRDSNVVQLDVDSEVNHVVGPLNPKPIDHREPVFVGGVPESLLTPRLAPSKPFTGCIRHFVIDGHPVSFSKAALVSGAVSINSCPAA
T4 sequence (P07942 22-1786 limits assumed, chain 2 of 3): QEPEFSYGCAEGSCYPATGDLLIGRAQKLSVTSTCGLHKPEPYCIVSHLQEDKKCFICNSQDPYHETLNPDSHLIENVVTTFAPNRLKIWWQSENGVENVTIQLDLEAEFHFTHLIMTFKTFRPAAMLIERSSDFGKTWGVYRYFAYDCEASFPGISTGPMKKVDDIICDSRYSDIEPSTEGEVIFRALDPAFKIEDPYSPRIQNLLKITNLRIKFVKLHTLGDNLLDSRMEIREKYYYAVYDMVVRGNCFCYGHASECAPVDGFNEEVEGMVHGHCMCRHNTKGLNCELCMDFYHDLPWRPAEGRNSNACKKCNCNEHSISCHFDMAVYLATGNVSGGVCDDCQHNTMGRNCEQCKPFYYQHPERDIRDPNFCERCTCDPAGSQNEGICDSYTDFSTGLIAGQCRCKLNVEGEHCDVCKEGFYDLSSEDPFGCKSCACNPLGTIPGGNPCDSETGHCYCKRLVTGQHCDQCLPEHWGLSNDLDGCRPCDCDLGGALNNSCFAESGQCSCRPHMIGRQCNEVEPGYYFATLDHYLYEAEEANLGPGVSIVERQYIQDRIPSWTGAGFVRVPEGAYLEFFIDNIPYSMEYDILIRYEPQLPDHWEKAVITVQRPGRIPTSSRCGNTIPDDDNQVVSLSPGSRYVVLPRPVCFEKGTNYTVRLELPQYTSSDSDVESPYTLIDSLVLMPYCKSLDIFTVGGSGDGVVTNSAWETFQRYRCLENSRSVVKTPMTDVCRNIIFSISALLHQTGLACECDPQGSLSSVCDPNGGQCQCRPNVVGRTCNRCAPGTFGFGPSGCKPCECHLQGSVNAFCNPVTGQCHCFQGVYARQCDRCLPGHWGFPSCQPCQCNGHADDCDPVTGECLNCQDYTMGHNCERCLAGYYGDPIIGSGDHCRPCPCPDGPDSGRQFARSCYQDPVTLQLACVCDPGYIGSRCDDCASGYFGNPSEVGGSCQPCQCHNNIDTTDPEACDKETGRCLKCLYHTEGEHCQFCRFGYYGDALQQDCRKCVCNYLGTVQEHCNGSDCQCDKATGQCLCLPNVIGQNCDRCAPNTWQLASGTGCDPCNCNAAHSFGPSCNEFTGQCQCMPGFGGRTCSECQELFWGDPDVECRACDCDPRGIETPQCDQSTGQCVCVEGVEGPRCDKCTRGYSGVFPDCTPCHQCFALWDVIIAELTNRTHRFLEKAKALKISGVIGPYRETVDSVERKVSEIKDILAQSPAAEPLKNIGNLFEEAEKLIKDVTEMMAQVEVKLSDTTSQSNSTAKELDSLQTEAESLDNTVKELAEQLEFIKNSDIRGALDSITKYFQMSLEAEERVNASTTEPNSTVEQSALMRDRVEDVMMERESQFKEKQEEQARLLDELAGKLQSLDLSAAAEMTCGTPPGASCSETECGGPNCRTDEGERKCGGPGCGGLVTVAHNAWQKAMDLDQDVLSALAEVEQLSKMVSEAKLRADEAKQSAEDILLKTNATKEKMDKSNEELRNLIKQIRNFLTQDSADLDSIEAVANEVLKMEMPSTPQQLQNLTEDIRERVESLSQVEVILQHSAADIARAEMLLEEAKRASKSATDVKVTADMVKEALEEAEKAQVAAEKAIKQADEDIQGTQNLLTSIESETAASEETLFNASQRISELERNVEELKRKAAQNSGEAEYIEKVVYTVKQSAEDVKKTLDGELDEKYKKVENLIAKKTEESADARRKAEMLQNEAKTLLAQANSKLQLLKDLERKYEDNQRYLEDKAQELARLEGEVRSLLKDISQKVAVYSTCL
T4 sequence (P11047 34-1609 limits assumed, chain 3 of 3): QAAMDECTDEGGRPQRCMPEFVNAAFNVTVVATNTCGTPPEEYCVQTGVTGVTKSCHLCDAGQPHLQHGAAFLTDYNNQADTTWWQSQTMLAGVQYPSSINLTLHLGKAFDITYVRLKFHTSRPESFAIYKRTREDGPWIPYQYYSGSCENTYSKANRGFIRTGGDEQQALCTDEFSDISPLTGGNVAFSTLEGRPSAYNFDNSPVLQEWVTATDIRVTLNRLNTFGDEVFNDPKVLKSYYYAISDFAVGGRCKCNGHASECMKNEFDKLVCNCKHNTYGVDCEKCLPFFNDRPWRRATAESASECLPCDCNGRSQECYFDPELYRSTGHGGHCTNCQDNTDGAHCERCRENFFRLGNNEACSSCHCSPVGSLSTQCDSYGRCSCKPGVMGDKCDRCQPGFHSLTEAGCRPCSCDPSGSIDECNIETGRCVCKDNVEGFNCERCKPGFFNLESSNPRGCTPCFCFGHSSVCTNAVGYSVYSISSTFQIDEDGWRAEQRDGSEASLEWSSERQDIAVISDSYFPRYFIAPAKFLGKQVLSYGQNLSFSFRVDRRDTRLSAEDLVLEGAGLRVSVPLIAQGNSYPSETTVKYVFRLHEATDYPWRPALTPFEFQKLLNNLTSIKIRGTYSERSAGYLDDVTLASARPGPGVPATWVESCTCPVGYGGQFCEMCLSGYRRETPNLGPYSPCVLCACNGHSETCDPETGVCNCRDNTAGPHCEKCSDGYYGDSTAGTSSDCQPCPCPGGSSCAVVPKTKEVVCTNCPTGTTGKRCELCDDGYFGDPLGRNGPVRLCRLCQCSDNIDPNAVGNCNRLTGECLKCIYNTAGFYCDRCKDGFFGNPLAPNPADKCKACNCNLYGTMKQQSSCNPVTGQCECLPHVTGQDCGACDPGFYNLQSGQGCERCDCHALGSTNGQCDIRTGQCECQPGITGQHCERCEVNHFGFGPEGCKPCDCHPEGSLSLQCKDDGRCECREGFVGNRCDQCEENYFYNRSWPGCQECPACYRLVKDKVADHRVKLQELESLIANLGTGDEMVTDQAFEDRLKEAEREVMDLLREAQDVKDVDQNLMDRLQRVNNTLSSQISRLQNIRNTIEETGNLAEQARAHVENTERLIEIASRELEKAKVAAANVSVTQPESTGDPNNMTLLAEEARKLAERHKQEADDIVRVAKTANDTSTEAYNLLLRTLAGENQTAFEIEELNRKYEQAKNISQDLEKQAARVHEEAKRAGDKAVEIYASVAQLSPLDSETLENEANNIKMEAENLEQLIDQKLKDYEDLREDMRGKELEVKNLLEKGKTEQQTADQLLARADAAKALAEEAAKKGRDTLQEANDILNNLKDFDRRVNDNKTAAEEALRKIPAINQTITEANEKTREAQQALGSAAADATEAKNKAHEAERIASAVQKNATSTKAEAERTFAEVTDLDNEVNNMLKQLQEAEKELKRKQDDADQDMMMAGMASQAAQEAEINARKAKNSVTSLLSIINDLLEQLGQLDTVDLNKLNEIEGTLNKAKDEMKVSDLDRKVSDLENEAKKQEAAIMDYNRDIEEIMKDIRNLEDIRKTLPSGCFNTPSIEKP

On to B1, for which the binding result with laminin-111, with laminin-211, with laminin-332, with laminin-411, with laminin-421 and with laminin-511 was “no binding (tested: A450 0.1)” in each case. In addition, the binding result in the assay with laminin-521 is reported as “no binding (tested: A450 0.1)”; in assay [1], “no binding (tested: 1 µg/mL)”; in the assay with human plasma-derived vWF it was “no binding”; in assay [2] it was “no binding (tested: 1 µg/mL VEGF-A121 (single concentration))”; in assay [3], “no binding (tested: 1 µg/mL VEGF-A121 (single concentration))”; in [4], “no binding (tested: 1 µg/mL VEGF-A121 (single concentration))”. Besides, in assay [5], the binding result is listed as “no binding (tested: 1 µg/mL VEGF-A121 (single concentration))”.

For B2, the binding result is given as “no binding (tested: 1 µg/mL VEGF-A165 (single concentration))” in assay [6], “no binding (tested: 1 µg/mL VEGF-A145 (single concentration))” in [7] and “no binding (tested: 1 µg/mL VEGF-A121 (single concentration))” in assay [8].

As for B3, the binding result with laminin-111, with laminin-211, with laminin-332, with laminin-411, with laminin-421 and in the assay with laminin-511 was “no binding (tested: A450 0.1)” in each case. Besides, the binding result is reported as “no binding (tested: A450 0.1)” with laminin-521, “no binding (tested: 1 µg/mL)” in [1], “no binding” in the assay with human plasma-derived vWF and “no binding (tested: 1 µg/mL PlGF-1 (single concentration))” in [9].
